Consider one substance from paper PMC2113458.

The assay has as its target platelet membrane actin (human (endogenous in platelets)) (UniProt P60709). In words: SEC. (In general: Size exclusion chromatography separates by hydrodynamic size, large species first.)

Substance “glycoprotein IIb, form in the Triton X-100-insoluble fraction of platelet plasma membranes (natural protein)” gave a percent of surface GPIIb and III associated with the actin-rich void volume peak greater than 85%.
